For assay [1], the target named is Lis1 with N-terminal HaloTag (UniProt P43034). The experiment in a line: pull-down; depletion of dynein from solution by Lis1 (0-600 nM) coupled to magnetic beads via its N-terminal HaloTag; SDS-PAGE densitometry of the supernatant; one-site fit with Bmax set to 1.
The target in assay [2] is Ndel1 with the C-terminal coiled coil (256-291) deleted, N-terminal HaloTag and C-terminal 6X-His tag (UniProt Q9GZM8). The assay is described as follows: pull-down; depletion of 5 nM dynein from solution by Ndel1 (0-600 nM) coupled to Magne HaloTag beads; 45 min; binding buffer 30 mM Hepes pH 7.4, 2 mM magnesium acetate, 1 mM EGTA, 10% glycerol, 1 mM DTT, 1 mg/ml casein, 0.1% NP-40, 1 mM ADP, 36 mM KCl; SDS-PAGE densitometry of the supernatant; one-site fit with Bmax set to 1.
Ndel1 with the C-terminal coiled coil (256-291) deleted, N-terminal HaloTag and C-terminal 6X-His tag, sequence (Q9GZM8 other isoform, or with tags, fused parts or gaps): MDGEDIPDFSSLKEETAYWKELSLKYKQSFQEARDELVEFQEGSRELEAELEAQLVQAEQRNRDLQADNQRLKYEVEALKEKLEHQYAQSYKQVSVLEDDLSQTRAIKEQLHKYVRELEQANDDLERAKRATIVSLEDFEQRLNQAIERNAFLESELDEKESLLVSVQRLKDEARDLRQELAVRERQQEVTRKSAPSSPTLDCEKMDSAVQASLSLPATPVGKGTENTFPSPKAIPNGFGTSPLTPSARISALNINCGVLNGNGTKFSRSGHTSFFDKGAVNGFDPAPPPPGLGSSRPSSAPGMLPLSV

Assay [3] has as its target N-terminal coiled coil of Ndel1 (1-192) with N-terminal HaloTag and C-terminal 6X-His tag (UniProt Q9GZM8). Described as above.
Assay [4] concerns the target Full-length phosphomimetic Ndel1 (S198D; T219D; S231D; S242D) with N-terminal HaloTag and C-terminal 6X-His tag (UniProt Q9GZM8). Described as above.
Assay [5] has as its target Full-length Ndel1 with N-terminal HaloTag and C-terminal 6X-His tag (UniProt Q9GZM8). The assay is described as above.

Lis1 with N-terminal HaloTag, sequence (P43034 whole entry): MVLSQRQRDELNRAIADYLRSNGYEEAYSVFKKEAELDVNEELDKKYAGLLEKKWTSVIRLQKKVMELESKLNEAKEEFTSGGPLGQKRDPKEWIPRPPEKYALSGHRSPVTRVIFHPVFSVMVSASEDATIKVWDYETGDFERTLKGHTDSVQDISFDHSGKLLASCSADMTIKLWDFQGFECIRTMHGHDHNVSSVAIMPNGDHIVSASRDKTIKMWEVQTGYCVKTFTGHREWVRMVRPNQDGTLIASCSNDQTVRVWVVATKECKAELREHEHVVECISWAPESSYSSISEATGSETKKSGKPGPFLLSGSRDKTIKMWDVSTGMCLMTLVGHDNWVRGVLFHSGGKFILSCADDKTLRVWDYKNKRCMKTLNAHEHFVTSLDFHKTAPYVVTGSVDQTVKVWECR
N-terminal coiled coil of Ndel1 (1-192) with N-terminal HaloTag and C-terminal 6X-His tag, sequence (Q9GZM8 1-192): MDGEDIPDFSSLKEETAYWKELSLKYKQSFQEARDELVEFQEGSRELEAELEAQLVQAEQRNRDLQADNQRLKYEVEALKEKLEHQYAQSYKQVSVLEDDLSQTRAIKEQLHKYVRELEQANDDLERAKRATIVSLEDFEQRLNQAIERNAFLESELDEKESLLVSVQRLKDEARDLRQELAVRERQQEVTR
Full-length phosphomimetic Ndel1 (S198D; T219D; S231D; S242D) with N-terminal HaloTag and C-terminal 6X-His tag, sequence (Q9GZM8 whole entry S198D/T219D/S231D/S242D): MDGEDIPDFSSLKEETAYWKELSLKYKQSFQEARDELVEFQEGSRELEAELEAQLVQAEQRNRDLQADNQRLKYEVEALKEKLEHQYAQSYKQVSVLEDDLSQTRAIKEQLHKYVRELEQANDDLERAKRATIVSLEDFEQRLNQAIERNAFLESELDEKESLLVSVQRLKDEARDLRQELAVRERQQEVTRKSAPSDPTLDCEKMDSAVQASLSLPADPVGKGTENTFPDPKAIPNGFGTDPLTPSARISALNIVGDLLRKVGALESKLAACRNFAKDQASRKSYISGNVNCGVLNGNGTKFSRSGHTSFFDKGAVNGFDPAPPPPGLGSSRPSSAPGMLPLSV
Full-length Ndel1 with N-terminal HaloTag and C-terminal 6X-His tag, sequence (Q9GZM8 whole entry): as the sequence (Q9GZM8 whole entry S198D/T219D/S231D/S242D) above, with D198S, D219T, D231S, D242S counted along it

As usually defined, the Kd is the equilibrium constant for the complex coming apart. Take “SNAP-tagged, recombinant full-length human cytoplasmic dynein-1 with all associated accessory chains (from UniProt Q14204 1-4646; O43237 1-492; P63172 1-113; Q9NP97 1-96; P63167 1-89) (complex)”: the dissociation constant Kd in assay [1] worked out at 101 nM; in assay [2] it was 55.1 nM; in assay [3], 79.3 nM; in assay [4], 15.8 nM; in assay [5] it was 32.8 nM.

The values above are taken from publication PMC10248797.
